Non-standard residues stand in square brackets, D forms with d. No end group written: not given here. Tic = O=C(O)[C@@H]1Cc2ccccc2CN1
How the values were obtained:
[1] = biological target: CMKLR1 (recombinant, species not given); experiment: cell-based or functional assay
[2] = biological target: CMKLR1 (recombinant, species not given); experiment: cell-based or functional assay; remark: listed apart in the source

β-Arrestin recruitment, EC50 [1] [nM]	β-Arrestin recruitment, Max Efficacy (% 10 µM s-Stable chem9) [1] [%]	CMKLR1 canonical Gαi signal transduction, EC50 (BSA) (no wash) [2] [nM]	CMKLR1 canonical Gαi signal transduction, EC50 (BSA) (wash × 3) [2] [nM]	CMKLR1 canonical Gαi signal transduction, EC50 (no wash) [2] [nM]	CMKLR1 canonical Gαi signal transduction, EC50 (wash × 3) [2] [nM]	Binder
17.4	160	12.7	2860	4.7	26.4	[dY]FLP[dS]QF[dA][Tic]S (also: C18:1 lipid tail (which C18:1 acid not given here), linker and attachment not given here) [C18:1 lipidated stable chemerin 9 analog]
31.9	100	5.1		35.2		[dY]FLP[dS]QF[dA][Tic]S [s-Stable Chem (soluble stable chemerin peptide)]
181	110	73.3		45.7	350	[dY]FLP[dS]QF[dA][Tic]S (also: C18:3 (linolenic acid) lipid tail, linker and attachment not given here) [C18:3 lipidated stable chemerin 9 analog]
131	149	108	13500	84.5	445	[dY]FLP[dS]QF[dA][Tic]S (also: cholesterol lipid tail, linker and attachment not given here) [Cholesterol lipidated stable chemerin 9 analog]

The remaining lines, values behind:

Binder	β-Arrestin recruitment, EC50 [1] [nM]	β-Arrestin recruitment, Max Efficacy (% 10 µM s-Stable chem9) [1] [%]	CMKLR1 canonical Gαi signal transduction, EC50 (BSA) (no wash) [2] [nM]	CMKLR1 canonical Gαi signal transduction, EC50 (BSA) (wash × 3) [2] [nM]	CMKLR1 canonical Gαi signal transduction, EC50 (no wash) [2] [nM]	CMKLR1 canonical Gαi signal transduction, EC50 (wash × 3) [2] [nM]
[dY]FLP[dS]QF[dA][Tic]S (also: C16:1 lipid tail, linker and attachment not given here) [C16:1 lipidated stable chemerin 9 analog]	80.8	154	29.5	3140	12	42.2
[dY]FLP[dS]QF[dA][Tic]S (also: C16 (palmitic acid) lipid tail, linker and attachment not given here) [C16 lipidated stable chemerin 9 analog]	3.23	165	6.4	520	2.7	18.6
[dY]FLP[dS]QF[dA][Tic]S (also: C10 lipid tail, linker and attachment not given here) [C10 lipidated stable chemerin 9 analog]	23.1	98.3	17.8		17.8	
[dY]FLP[dS]QF[dA][Tic]S (also: C4 lipid tail, linker and attachment not given here) [C4 lipidated stable chemerin 9 analog]	223	89.7	11		79.3	
[dY]FLP[dS]QF[dA][Tic]S (also: C14:1 lipid tail, linker and attachment not given here) [C14:1 lipidated stable chemerin 9 analog]	51.9	124	26.2	1820	9.3	100

Source: patent US20240325486A1 (TUFTS MEDICAL CENTER, published 2024)
